Reference: patent US20130190246A1
Where no end group is shown, it is not given here. Side-chain parts run from the residue outwards. dermatan sulfate = dermatan sulfate, the glycan component of the peptidoglycan; BMPH = crosslinker coupling the Cys thiol to oxidized dermatan sulfate

How the values were obtained:
[1] = target: Type I fibrillar collagen (Chronolog, Havertown, Pa.); assay: plate binding assay on fibrillar collagen, biotin label detected with streptavidin-HRP, saturation curve fit
[2] = target: Type I fibrillar collagen (Chronolog, Havertown, Pa.); assay: plate assay on fibrillar collagen, biotin labeled peptidoglycan detected with streptavidin-HRP, Abs 450 nm
[3] = target: Type I fibrillar collagen (Chronolog, Havertown, Pa.); assay: diffusion from fibrillar collagen coated plate at 37° C., loaded at 10 µM, biotin label detected with streptavidin-HRP
[4] = target: collagen (type and supplier not stated; Examples 11 and 12); assay: SPR (Biacore 2000, CM-3 chip), collagen immobilized, peptide in flow at 100 µM to 1.5 µM

Kd [1] | EC50 (read off the curve) [2] | amount remaining bound after 1 week of extensive rinsing (equivalent concentration) [3] | Kd [4] | Binder
118 nM | 100 nM | – | – | RRANAALKAGELYKSILYGC([BMPH-dermatan sulfate]) (not fully specified (C-terminus); also: 4 SILY peptides per dermatan sulfate, biotin label on every peptide, position not given here) [biotin labeled peptidoglycan DS-SILY4 (DS-SILY4-biotin)]
24 nM | 20 nM | 10 nM | – | RRANAALKAGELYKSILYGC([BMPH-dermatan sulfate]) (not fully specified (C-terminus); also: 18 SILY peptides per dermatan sulfate, 2 of them biotin labeled, biotin position not given here) [biotin labeled peptidoglycan DS-SILY18 (DS-SILY18-biotin)]
– | – | – | 1200 nM | RRANAALKAGELYKSILYGC [peptide … (SILY)]
